Source: patent publication US20150344570A1 (published 2015)

B1: GpH7-A5/GpH7-B3 variant Y300_18N/GpL16-k0 (antibody, human IgG1, kappa)
heavy 1: not shown
heavy 2: not shown
light: DIVMTQSPLSLPVTPGEPASISCQASESLVHSNRNTYLHWYLQKPGQSPQLLIYKVSNRFSGVPDRFSGSGSGTDFTLKISRVEAEDVGVYYCSQNTHVPPTFGQGTKVEIERTVAAPSVFIFPPSDEQLKSGTASVVCLLNNFYPREAKVQWKVDNALQSGNSQESVTEQDSKDSTYSLSSTLTLSKADYEKHKVYACEVTHQGLSSPVTKSFNRGEC
notes: heterodimerized IgG1, mutation in one H chain only; also called He Ab
B2: GpH7-A5/GpH7-B3 variant S267_11K/GpL16-k0 (antibody, human IgG1, kappa)
heavy 1: not shown
heavy 2: not shown
light: DIVMTQSPLSLPVTPGEPASISCQASESLVHSNRNTYLHWYLQKPGQSPQLLIYKVSNRFSGVPDRFSGSGSGTDFTLKISRVEAEDVGVYYCSQNTHVPPTFGQGTKVEIERTVAAPSVFIFPPSDEQLKSGTASVVCLLNNFYPREAKVQWKVDNALQSGNSQESVTEQDSKDSTYSLSSTLTLSKADYEKHKVYACEVTHQGLSSPVTKSFNRGEC
notes: He Ab; alteration in one H chain only; also called He Ab
B3: GpH7-A5/GpH7-B3 variant S267_12R/GpL16-k0 (antibody, human IgG1, kappa)
heavy 1: not shown
heavy 2: not shown
light: DIVMTQSPLSLPVTPGEPASISCQASESLVHSNRNTYLHWYLQKPGQSPQLLIYKVSNRFSGVPDRFSGSGSGTDFTLKISRVEAEDVGVYYCSQNTHVPPTFGQGTKVEIERTVAAPSVFIFPPSDEQLKSGTASVVCLLNNFYPREAKVQWKVDNALQSGNSQESVTEQDSKDSTYSLSSTLTLSKADYEKHKVYACEVTHQGLSSPVTKSFNRGEC
notes: as for B2
B4: GpH7-A5/GpH7-B3 variant A327_07I/GpL16-k0 (antibody, human IgG1, kappa)
heavy 1: not shown
heavy 2: not shown
light: DIVMTQSPLSLPVTPGEPASISCQASESLVHSNRNTYLHWYLQKPGQSPQLLIYKVSNRFSGVPDRFSGSGSGTDFTLKISRVEAEDVGVYYCSQNTHVPPTFGQGTKVEIERTVAAPSVFIFPPSDEQLKSGTASVVCLLNNFYPREAKVQWKVDNALQSGNSQESVTEQDSKDSTYSLSSTLTLSKADYEKHKVYACEVTHQGLSSPVTKSFNRGEC
notes: mutation in the GpH7-B3 chain only; also called He Ab
B5: GpH7-A5/GpH7-B3 variant A327_09D/GpL16-k0 (antibody, human IgG1, kappa)
heavy 1: not shown
heavy 2: not shown
light: DIVMTQSPLSLPVTPGEPASISCQASESLVHSNRNTYLHWYLQKPGQSPQLLIYKVSNRFSGVPDRFSGSGSGTDFTLKISRVEAEDVGVYYCSQNTHVPPTFGQGTKVEIERTVAAPSVFIFPPSDEQLKSGTASVVCLLNNFYPREAKVQWKVDNALQSGNSQESVTEQDSKDSTYSLSSTLTLSKADYEKHKVYACEVTHQGLSSPVTKSFNRGEC
notes: as for B4
B6: GpH7-A5/GpH7-B3 variant A327_10E/GpL16-k0 (antibody, human IgG1, kappa)
heavy 1: not shown
heavy 2: not shown
light: DIVMTQSPLSLPVTPGEPASISCQASESLVHSNRNTYLHWYLQKPGQSPQLLIYKVSNRFSGVPDRFSGSGSGTDFTLKISRVEAEDVGVYYCSQNTHVPPTFGQGTKVEIERTVAAPSVFIFPPSDEQLKSGTASVVCLLNNFYPREAKVQWKVDNALQSGNSQESVTEQDSKDSTYSLSSTLTLSKADYEKHKVYACEVTHQGLSSPVTKSFNRGEC
notes: as for B4
B7: GpH7-A5/GpH7-B3 variant A327_18N/GpL16-k0 (antibody, human IgG1, kappa)
heavy 1: not shown
heavy 2: not shown
light: DIVMTQSPLSLPVTPGEPASISCQASESLVHSNRNTYLHWYLQKPGQSPQLLIYKVSNRFSGVPDRFSGSGSGTDFTLKISRVEAEDVGVYYCSQNTHVPPTFGQGTKVEIERTVAAPSVFIFPPSDEQLKSGTASVVCLLNNFYPREAKVQWKVDNALQSGNSQESVTEQDSKDSTYSLSSTLTLSKADYEKHKVYACEVTHQGLSSPVTKSFNRGEC
notes: as for B4
B8: GpH7-A5/GpH7-B3 variant A330_01G/GpL16-k0 (antibody, human IgG1, kappa)
heavy 1: not shown
heavy 2: not shown
light: DIVMTQSPLSLPVTPGEPASISCQASESLVHSNRNTYLHWYLQKPGQSPQLLIYKVSNRFSGVPDRFSGSGSGTDFTLKISRVEAEDVGVYYCSQNTHVPPTFGQGTKVEIERTVAAPSVFIFPPSDEQLKSGTASVVCLLNNFYPREAKVQWKVDNALQSGNSQESVTEQDSKDSTYSLSSTLTLSKADYEKHKVYACEVTHQGLSSPVTKSFNRGEC
notes: as for B4
B9: GpH7-A5/GpH7-B3 variant I332_04F/GpL16-k0 (antibody, human IgG1, kappa)
heavy 1: not shown
heavy 2: not shown
light: DIVMTQSPLSLPVTPGEPASISCQASESLVHSNRNTYLHWYLQKPGQSPQLLIYKVSNRFSGVPDRFSGSGSGTDFTLKISRVEAEDVGVYYCSQNTHVPPTFGQGTKVEIERTVAAPSVFIFPPSDEQLKSGTASVVCLLNNFYPREAKVQWKVDNALQSGNSQESVTEQDSKDSTYSLSSTLTLSKADYEKHKVYACEVTHQGLSSPVTKSFNRGEC
notes: as for B4

Key:
[1] = molecular target: T1, FcγRIIa R (FcγRIIa allotype with Arg at position 131), extracellular domain with C-terminal His tag (human, UniProt P12318 34-217); test: SPR (Biacore), antibody captured, FcγR analyte; vs GpH7-A5/GpH7-B3/GpL16-k0 = 100
T1 construct: extracellular domain; made in FreeStyle293 cells; analyte in the Biacore assay; also called FcγRIIa type R; 2aR
T1 sequence (looked up): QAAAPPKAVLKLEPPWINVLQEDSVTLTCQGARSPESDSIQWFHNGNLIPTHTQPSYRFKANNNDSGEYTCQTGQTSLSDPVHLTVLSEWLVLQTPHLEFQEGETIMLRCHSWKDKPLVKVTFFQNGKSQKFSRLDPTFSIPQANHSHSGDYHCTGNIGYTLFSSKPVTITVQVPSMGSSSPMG

[2] = molecular target: T2, FcγRIIb, extracellular domain with C-terminal His tag (human, UniProt P31994 43-217); test: as above
T2 construct: extracellular domain; made in FreeStyle293 cells; analyte in the Biacore assay; also called 2b; FcgRIIb
T2 sequence (looked up): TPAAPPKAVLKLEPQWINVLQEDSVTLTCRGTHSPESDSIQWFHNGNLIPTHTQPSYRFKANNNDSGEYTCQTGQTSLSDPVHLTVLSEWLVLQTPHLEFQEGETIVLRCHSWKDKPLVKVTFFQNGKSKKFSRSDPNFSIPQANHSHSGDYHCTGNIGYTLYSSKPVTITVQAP

[3] = molecular target: T3, FcγRIIb, extracellular domain with C-terminal His tag (human, UniProt P31994 43-217); test: SPR (Biacore), relative binding, GpH7-A5/GpH7-B3/GpL16-k0 = 100
T3 construct: extracellular domain; also called 2b; FcgRIIb; not shown: His tag at the C terminus
T3 sequence (looked up): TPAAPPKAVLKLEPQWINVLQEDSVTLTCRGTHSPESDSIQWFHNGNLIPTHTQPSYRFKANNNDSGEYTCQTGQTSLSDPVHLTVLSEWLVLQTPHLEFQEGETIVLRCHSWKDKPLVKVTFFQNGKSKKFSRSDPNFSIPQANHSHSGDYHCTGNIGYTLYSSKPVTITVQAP

[4] = molecular target: T4, FcγRIIIa (human, UniProt P08637 17-208); test: SPR (Biacore), relative binding
T4 construct: extracellular domain; also called FcgRIIIa; 3a

[5] = molecular target: T5, FcγRIIb (human, UniProt P31994 43-217); test: SPR (Biacore), relative binding
T5 construct: extracellular domain; also called FcgRIIb; 2b
T5 sequence (looked up): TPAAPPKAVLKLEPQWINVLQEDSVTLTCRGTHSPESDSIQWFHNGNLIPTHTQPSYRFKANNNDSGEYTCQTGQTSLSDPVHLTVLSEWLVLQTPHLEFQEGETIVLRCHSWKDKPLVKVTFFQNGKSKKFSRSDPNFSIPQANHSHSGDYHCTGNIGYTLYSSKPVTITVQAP

T4 sequence (P08637 17-208): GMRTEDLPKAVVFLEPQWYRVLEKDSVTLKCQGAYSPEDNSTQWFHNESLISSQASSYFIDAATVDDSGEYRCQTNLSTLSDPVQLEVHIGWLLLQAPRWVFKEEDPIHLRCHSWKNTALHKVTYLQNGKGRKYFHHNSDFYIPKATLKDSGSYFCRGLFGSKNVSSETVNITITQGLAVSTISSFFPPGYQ

Row | He/Con_2aR [1] | He/Con_2b [2] | He/Con_2b [3] | He/Con_3a [4] | He/Con_2b [5] | Binder
1 | 100 relative (HeCon Ab = 100) | 82.7 relative (HeCon Ab = 100) | – | – | – | B1
2 | – | – | 12.2 % of control | – | – | B2
3 | – | – | 11.3 % of control | – | – | B3
4 | – | – | – | 42.4 % of GpH7-A5/GpH7-B3/GpL16-k0 | 127 % of GpH7-A5/GpH7-B3/GpL16-k0 | B4
5 | – | – | – | 83.7 % of GpH7-A5/GpH7-B3/GpL16-k0 | 172 % of GpH7-A5/GpH7-B3/GpL16-k0 | B5
6 | – | – | – | 68.6 % of GpH7-A5/GpH7-B3/GpL16-k0 | 140 % of GpH7-A5/GpH7-B3/GpL16-k0 | B6
7 | – | – | – | 61.1 % of GpH7-A5/GpH7-B3/GpL16-k0 | 113 % of GpH7-A5/GpH7-B3/GpL16-k0 | B7
8 | – | – | – | 89.1 % of GpH7-A5/GpH7-B3/GpL16-k0 | 104 % of GpH7-A5/GpH7-B3/GpL16-k0 | B8
9 | – | – | – | 97.6 % of GpH7-A5/GpH7-B3/GpL16-k0 | 104 % of GpH7-A5/GpH7-B3/GpL16-k0 | B9
